Source: US20250382384A1

B1: BG138P-Hz0 (antibody, human IgG1, V domains shown)
VH: QVQLVQSGAEVKKPGASVKVSCKASGYTFTTYTMHWVRQAPGQRLEWMGYINPGSDYTHYNQKFKDRVTITRDTSASTAYMELSSLRSEDTAVYYCARQGNYAAYYFDYWGQGTLVTVSS
VL: DIQMTQSPSSLSASVGDRVTITCRASGNIHNFLVWYQQKPGKVPKLLIYNAKTLTDGVPSRFSGSGSGTDFTLTISSLQPEDVATYYCQNFWNVPFTFGQGTKLEIK
B2: BG138P-Bz11 (antibody, human IgG1, V domains shown)
VH: QVQLVQSGAEVKKPGASVKVSCKASGYTFTTYTMHWIKQAPGQGLEWIGYINPGSDYTHYNQKFKDKATLTADKSASTAYMELYSLRSEDTAVYYCARQGNYAAYYFDYWGQGTLVTVSS
VL: DIQMTQSPSSLSASVGDRVTITCRASGNIHNFLVWYQQKPGKVPKLLVYNAKTLTDGVPSRFSGSGSGTQYSLTISSLQPEDVATYYCQNFWNVPFTFGSGTKLEIK
B3: BG138P-Bz0 (antibody, human IgG1, V domains shown)
VH: QVQLVQSGAEVKKPGASVKVSCKASGYTFTTYTMHWIKQAPGQGLEWIGYINPGSDYTHYNQKFKDKATLTADKSASTAYMELYSLRSEDTAVYYCARQGNYAAYYFDYWGQGTLVTVSS
VL: DIQMTQSPSSLSASVGDRVTITCRASGNIHNFLVWYQQKPGKSPKLLVYNAKTLTDGVPSRFSGSGSGTQYSLTISSLQPEDVATYYCQNFWNVPFTFGSGTKLEIK
B4: BG138P-Bz7 (antibody, human IgG1, V domains shown)
VH: QVQLVQSGAEVKKPGASVKVSCKASGYTFTTYTMHWIKQAPGQGLEWIGYINPGSDYTHYNQKFKDKATITADKSASTAYMELYSLRSEDTAVYYCARQGNYAAYYFDYWGQGTLVTVSS
VL: DIQMTQSPSSLSASVGDRVTITCRASGNIHNFLVWYQQKPGKSPKLLVYNAKTLTDGVPSRFSGSGSGTQYSLTISSLQPEDVATYYCQNFWNVPFTFGSGTKLEIK
B5: BG138P-Bz14 (antibody, human IgG1, V domains shown)
VH: QVQLVQSGAEVKKPGASVKVSCKASGYTFTTYTMHWIKQAPGQGLEWIGYINPGSDYTHYNQKFKDKATLTADKSASTAYMELYSLRSEDTAVYYCARQGNYAAYYFDYWGQGTLVTVSS
VL: DIQMTQSPSSLSASVGDRVTITCRASGNIHNFLVWYQQKPGKSPKLLVYNAKTLTDGVPSRFSGSGSGTQFSLTISSLQPEDVATYYCQNFWNVPFTFGSGTKLEIK
B6: BG138P-Bz3 (antibody, human IgG1, V domains shown)
VH: QVQLVQSGAEVKKPGASVKVSCKASGYTFTTYTMHWIKQAPGQRLEWIGYINPGSDYTHYNQKFKDKATLTADKSASTAYMELYSLRSEDTAVYYCARQGNYAAYYFDYWGQGTLVTVSS
VL: DIQMTQSPSSLSASVGDRVTITCRASGNIHNFLVWYQQKPGKSPKLLVYNAKTLTDGVPSRFSGSGSGTQYSLTISSLQPEDVATYYCQNFWNVPFTFGSGTKLEIK
B7: BG138P-Bz16 (antibody, human IgG1, V domains shown)
VH: QVQLVQSGAEVKKPGASVKVSCKASGYTFTTYTMHWIKQAPGQGLEWIGYINPGSDYTHYNQKFKDKATLTADKSASTAYMELYSLRSEDTAVYYCARQGNYAAYYFDYWGQGTLVTVSS
VL: DIQMTQSPSSLSASVGDRVTITCRASGNIHNFLVWYQQKPGKSPKLLVYNAKTLTDGVPSRFSGSGSGTQYSLTISSLQPEDVATYYCQNFWNVPFTFGQGTKLEIK
B8: BG138P-Bz8 (antibody, human IgG1, V domains shown)
VH: QVQLVQSGAEVKKPGASVKVSCKASGYTFTTYTMHWIKQAPGQGLEWIGYINPGSDYTHYNQKFKDKATLTRDKSASTAYMELYSLRSEDTAVYYCARQGNYAAYYFDYWGQGTLVTVSS
VL: DIQMTQSPSSLSASVGDRVTITCRASGNIHNFLVWYQQKPGKSPKLLVYNAKTLTDGVPSRFSGSGSGTQYSLTISSLQPEDVATYYCQNFWNVPFTFGSGTKLEIK
B9: BG138P-Bz10 (antibody, human IgG1, V domains shown)
VH: QVQLVQSGAEVKKPGASVKVSCKASGYTFTTYTMHWIKQAPGQGLEWIGYINPGSDYTHYNQKFKDKATLTADKSASTAYMELSSLRSEDTAVYYCARQGNYAAYYFDYWGQGTLVTVSS
VL: DIQMTQSPSSLSASVGDRVTITCRASGNIHNFLVWYQQKPGKSPKLLVYNAKTLTDGVPSRFSGSGSGTQYSLTISSLQPEDVATYYCQNFWNVPFTFGSGTKLEIK
B10: BG138P-Bz13 (antibody, human IgG1, V domains shown)
VH: QVQLVQSGAEVKKPGASVKVSCKASGYTFTTYTMHWIKQAPGQGLEWIGYINPGSDYTHYNQKFKDKATLTADKSASTAYMELYSLRSEDTAVYYCARQGNYAAYYFDYWGQGTLVTVSS
VL: DIQMTQSPSSLSASVGDRVTITCRASGNIHNFLVWYQQKPGKSPKLLVYNAKTLTDGVPSRFSGSGSGTDYSLTISSLQPEDVATYYCQNFWNVPFTFGSGTKLEIK
B11: BG138P-Bz6 (antibody, human IgG1, V domains shown)
VH: QVQLVQSGAEVKKPGASVKVSCKASGYTFTTYTMHWIKQAPGQGLEWIGYINPGSDYTHYNQKFKDKVTLTADKSASTAYMELYSLRSEDTAVYYCARQGNYAAYYFDYWGQGTLVTVSS
VL: DIQMTQSPSSLSASVGDRVTITCRASGNIHNFLVWYQQKPGKSPKLLVYNAKTLTDGVPSRFSGSGSGTQYSLTISSLQPEDVATYYCQNFWNVPFTFGSGTKLEIK
B12: BG138P-Bz12 (antibody, human IgG1, V domains shown)
VH: QVQLVQSGAEVKKPGASVKVSCKASGYTFTTYTMHWIKQAPGQGLEWIGYINPGSDYTHYNQKFKDKATLTADKSASTAYMELYSLRSEDTAVYYCARQGNYAAYYFDYWGQGTLVTVSS
VL: DIQMTQSPSSLSASVGDRVTITCRASGNIHNFLVWYQQKPGKSPKLLIYNAKTLTDGVPSRFSGSGSGTQYSLTISSLQPEDVATYYCQNFWNVPFTFGSGTKLEIK
B13: BG138P-Bz9 (antibody, human IgG1, V domains shown)
VH: QVQLVQSGAEVKKPGASVKVSCKASGYTFTTYTMHWIKQAPGQGLEWIGYINPGSDYTHYNQKFKDKATLTADTSASTAYMELYSLRSEDTAVYYCARQGNYAAYYFDYWGQGTLVTVSS
VL: DIQMTQSPSSLSASVGDRVTITCRASGNIHNFLVWYQQKPGKSPKLLVYNAKTLTDGVPSRFSGSGSGTQYSLTISSLQPEDVATYYCQNFWNVPFTFGSGTKLEIK
B14: BG138P-Bz15 (antibody, human IgG1, V domains shown)
VH: QVQLVQSGAEVKKPGASVKVSCKASGYTFTTYTMHWIKQAPGQGLEWIGYINPGSDYTHYNQKFKDKATLTADKSASTAYMELYSLRSEDTAVYYCARQGNYAAYYFDYWGQGTLVTVSS
VL: DIQMTQSPSSLSASVGDRVTITCRASGNIHNFLVWYQQKPGKSPKLLVYNAKTLTDGVPSRFSGSGSGTQYTLTISSLQPEDVATYYCQNFWNVPFTFGSGTKLEIK
B15: BG138P-Bz1 (antibody, human IgG1, V domains shown)
VH: QVQLVQSGAEVKKPGASVKVSCKASGYTFTTYTMHWVKQAPGQGLEWIGYINPGSDYTHYNQKFKDKATLTADKSASTAYMELYSLRSEDTAVYYCARQGNYAAYYFDYWGQGTLVTVSS
VL: DIQMTQSPSSLSASVGDRVTITCRASGNIHNFLVWYQQKPGKSPKLLVYNAKTLTDGVPSRFSGSGSGTQYSLTISSLQPEDVATYYCQNFWNVPFTFGSGTKLEIK
B16: BG138P-Bz5 (antibody, human IgG1, V domains shown)
VH: QVQLVQSGAEVKKPGASVKVSCKASGYTFTTYTMHWIKQAPGQGLEWIGYINPGSDYTHYNQKFKDRATLTADKSASTAYMELYSLRSEDTAVYYCARQGNYAAYYFDYWGQGTLVTVSS
VL: DIQMTQSPSSLSASVGDRVTITCRASGNIHNFLVWYQQKPGKSPKLLVYNAKTLTDGVPSRFSGSGSGTQYSLTISSLQPEDVATYYCQNFWNVPFTFGSGTKLEIK
B17: BG138P-Bz2 (antibody, human IgG1, V domains shown)
VH: QVQLVQSGAEVKKPGASVKVSCKASGYTFTTYTMHWIRQAPGQGLEWIGYINPGSDYTHYNQKFKDKATLTADKSASTAYMELYSLRSEDTAVYYCARQGNYAAYYFDYWGQGTLVTVSS
VL: DIQMTQSPSSLSASVGDRVTITCRASGNIHNFLVWYQQKPGKSPKLLVYNAKTLTDGVPSRFSGSGSGTQYSLTISSLQPEDVATYYCQNFWNVPFTFGSGTKLEIK
B18: BG138P-Bz4 (antibody, human IgG1, V domains shown)
VH: QVQLVQSGAEVKKPGASVKVSCKASGYTFTTYTMHWIKQAPGQGLEWMGYINPGSDYTHYNQKFKDKATLTADKSASTAYMELYSLRSEDTAVYYCARQGNYAAYYFDYWGQGTLVTVSS
VL: DIQMTQSPSSLSASVGDRVTITCRASGNIHNFLVWYQQKPGKSPKLLVYNAKTLTDGVPSRFSGSGSGTQYSLTISSLQPEDVATYYCQNFWNVPFTFGSGTKLEIK
B19: chBG219P (antibody, V domains shown)
VH: EVQLVESGGGLVKPGGSLKLSCAASGFTFNDYIMSWVRQTPEKRLEWVATVSSGGDNTYYPDSVKGRFTISRDNAKNNLYLQMSSLRSEDTALYYCTRYGGLGAMDYWGQGTSVTVSS
VL: DIVMTQSPASLSASVGETVTITCRASGNIHNYLTWYQQKQGKSPQLLVYNAKTLADGVPSRFSGSGSGPQYSLKINSLQPEDFGSYYCQHFWSVPYTFGGGTRLEIK
B20: chBG138P (antibody, V domains shown)
VH: QVQLLQSGAELARPGASVKMSCKASGYTFTTYTMHWIKQRPGQGLEWIGYINPGSDYTHYNQKFKDKATLTADKSSSTAYMHLYSLTSEDSAVYYCARQGNYAAYYFDYWGQGTTLTVSS
VL: DIQMTQSPASLSASVGETVTITCRASGNIHNFLVWYQQKQGKSPQLLVYNAKTLTDGVPSRFSGSGSGTQYSLKIKSLQPEDFGTYYCQNFWNVPFTFGSGTKLEIK
B21: chBG346P (antibody, V domains shown)
VH: EVQLQQSGAELVKPGASVKISCKASGYTFTNYWMNWVRQRPGQGLEWIGEIDPSDSYTNNNQKFKDKATLTVDKSSSTAYMQLSSLTSEDSAVYYCARGRRTGFAYWGQGTLVTVSS
VL: DIQMTQSPASLSVSVGETVTITCRASENIYSNLAWYQKKQGKSPQLLVYAATNLADGVPSRFSGSGSGTQYSLKINSLQSEDFGNYYCQHFWGTPYTFGGGTKLEIK

target: cynomolgus MUC1 SEA domain protein (cynomolgus); assay: SPR (Biacore 2000), antibody captured, cynoMUC1 SEA analyte, 1:1 binding

For B1, which Kd is on record?
Its Kd is 91.7 nM.

For B2, which Kd is on record?
Its Kd is 9.42 nM.

B3 was tested. Which Kd did it give?
The Kd was 6.59 nM.

Which Kd does the source give for B4 here?
The Kd was 4.35 nM.

How did the Kd turn out when B5 was run?
The Kd was 24.4 nM.

Which Kd does the source give for B6 here?
Its Kd is 9.04 nM.

How did the Kd turn out when B7 was run?
The Kd was 5.6 nM.

Which Kd does the source give for B8 here?
Its Kd is 13.5 nM.

B9 was tested. Which Kd did it give?
Its Kd is 6.28 nM.

B10 was tested. Which Kd did it give?
The Kd was 6.7 nM.

Which Kd does the source give for B11 here?
The Kd was 6.79 nM.

Which Kd does the source give for B12 here?
The Kd was 6.56 nM.

How did the Kd turn out when B13 was run?
The Kd was 6.81 nM.

With B14 as the binder, how does the Kd read?
The Kd was 6.11 nM.

How did the Kd turn out when B15 was run?
Its Kd is 7.18 nM.

Which Kd does the source give for B16 here?
Its Kd is 6.31 nM.

How did the Kd turn out when B17 was run?
Its Kd is 6.96 nM.

With B18 as the binder, how does the Kd read?
The Kd was 6.73 nM.

target: full-length cynomolgus MUC1 on stably transfected cells (cynomolgus); assay: FACS on HEK293/cyno MUC1
Sequence (chain, as listed by the source limits assumed, form in doubt): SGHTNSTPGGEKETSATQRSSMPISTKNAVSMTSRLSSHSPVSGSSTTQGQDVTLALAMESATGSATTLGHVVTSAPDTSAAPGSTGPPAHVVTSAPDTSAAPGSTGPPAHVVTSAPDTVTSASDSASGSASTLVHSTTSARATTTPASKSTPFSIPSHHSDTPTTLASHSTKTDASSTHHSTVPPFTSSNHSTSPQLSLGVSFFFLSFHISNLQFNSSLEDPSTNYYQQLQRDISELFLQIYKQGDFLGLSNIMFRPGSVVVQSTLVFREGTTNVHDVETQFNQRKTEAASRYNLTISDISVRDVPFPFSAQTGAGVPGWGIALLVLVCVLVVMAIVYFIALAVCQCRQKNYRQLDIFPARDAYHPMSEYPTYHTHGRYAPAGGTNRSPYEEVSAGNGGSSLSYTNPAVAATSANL

B19 was tested. Which EC50 did it give?
The EC50 was 12.7 nM.

How did the EC50 turn out when B20 was run?
The EC50 was 7.55 nM.

How did the EC50 turn out when B21 was run?
The EC50 was 41.8 nM.

target: full-length cynomolgus MUC1 on stably transfected cells (cynomolgus); assay: FACS (iQue3) on HEK293-cynoMUC1 cells

Which EC50 (read off the curve) does the source give for B20 here?
The EC50 (read off the curve) was 4 nM.
